This assay addresses GST-PCAF (human, UniProt Q92831 1-832). Put plainly: pull-down.

Sequence of GST-PCAF (Q92831 whole entry): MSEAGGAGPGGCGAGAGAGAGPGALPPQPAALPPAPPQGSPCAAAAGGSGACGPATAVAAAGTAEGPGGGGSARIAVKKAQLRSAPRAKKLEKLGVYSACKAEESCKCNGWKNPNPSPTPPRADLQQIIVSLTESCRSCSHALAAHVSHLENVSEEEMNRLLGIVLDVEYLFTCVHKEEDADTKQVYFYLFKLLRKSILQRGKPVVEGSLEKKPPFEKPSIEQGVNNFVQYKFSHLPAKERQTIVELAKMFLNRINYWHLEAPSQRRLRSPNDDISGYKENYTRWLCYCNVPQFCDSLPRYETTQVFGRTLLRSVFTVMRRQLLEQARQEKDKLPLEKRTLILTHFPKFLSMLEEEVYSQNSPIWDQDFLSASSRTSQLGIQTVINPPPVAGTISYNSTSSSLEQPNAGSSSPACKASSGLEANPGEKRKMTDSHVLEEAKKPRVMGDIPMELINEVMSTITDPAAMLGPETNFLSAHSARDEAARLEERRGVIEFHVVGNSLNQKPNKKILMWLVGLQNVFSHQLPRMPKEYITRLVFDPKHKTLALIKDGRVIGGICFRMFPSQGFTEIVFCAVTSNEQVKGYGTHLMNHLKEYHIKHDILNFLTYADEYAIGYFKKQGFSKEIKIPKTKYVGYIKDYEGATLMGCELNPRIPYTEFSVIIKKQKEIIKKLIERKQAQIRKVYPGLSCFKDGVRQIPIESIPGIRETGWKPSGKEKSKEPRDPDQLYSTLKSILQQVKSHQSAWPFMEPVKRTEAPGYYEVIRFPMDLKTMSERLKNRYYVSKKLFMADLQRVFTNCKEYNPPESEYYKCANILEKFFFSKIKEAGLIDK

B1: His-HMGA2 (natural protein)
chain: MSARGEGAGQPSTSAQGQPAAPAPQKRGRGRPRKQQQEPTGEPSPKRPRGRPKGSKNKSPSKAAQKKAEATGEKRPRGRPRKWPQQVVQKKPAQEETEETSSQESAEED
Consider B1, for which the binding result is “binds”.

The record behind these values is paper PMC7229824 (Nucleic Acids Research, 2020).
